Assay results reported in the supplement of paper PMC7125110.
± gives the standard error. This sample holds only a part of the variants without activity.

B1: glmS ribozyme (parent)
chain: AUAAAAGCGCCAGAACUACAGAAAUGUAGUUGACGAGGAGGAGGUUUAUCGAAUUUUCGGCGGAUGCCUCCAAA

Variants of: B1
Assay: self-cleavage kobs at 2500 uM GlcN6P; higher = faster cleavage; RNA array
Conditions: with glucosamine-6-phosphate
Summary of the method: (§1)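 Tiles of sequenced MiSeq chips were imaged over ~14 h at 37 °C. On them, barcoded ribozyme variants had been transcribed in situ by E. coli RNA polymerase and were tracked via a hybridised Cy3 probe while glucosamine-6-phosphate (40 μM to 10 mM) in HEPES/KCl/Mg(OAc)2 buffer flowed in. Per-tile medians, normalised to baseline and to non-cleaving reference variants, were fit to one- or two-exponential decays for kobs, and weighted Michaelis–Menten fits gave kcat and KM.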

| Variant | self-cleavage kobs at 2500 uM GlcN6P [s⁻¹] |
| --- | --- |
| G13U A39G C71A | 0.000144 ± 4.9e-05 |
| A14G U30C A39C U54A | 0.000132 ± 2.6e-05 |
| A15C U30A A33C G41U C50U C68A C70G | < 1e-05 |
| A15C G51A C70G | 6.1e-05 ± 2.9e-05 |
| G13U G66A | 0.000499 ± 0.0001 |
| G13C A14C G35C | < 1e-05 |
| A15G G29A A36G | < 1e-05 |
| A14G G29A C70G | 0.000126 ± 4e-05 |
| A14G U30A G41C | 0.000337 ± 0.00013 |
| A14G C67G C68A | 2.78e-05 ± 1.3e-05 |
| A14U G66A C70U | 0.00125 ± 0.00031 |
| A14C U45C | 0.000604 ± 0.00025 |
| A14C A15C A36U G37U U49A | < 1e-05 |
| A14U G32U A53G | 0.000242 ± 7.5e-05 |
| A14C U31A A42C A48G C71G | < 1e-05 |
| A15C G37A A39G | 0.000365 ± 0.00012 |
| A14U C16G U65A | 5.56e-05 ± 1.9e-05 |
| A14U U45C G60C G63C | < 1e-05 |
| G13U A14G A36G U55A | < 1e-05 |
| A14C A39U G41U U65G | < 1e-05 |
| A15C G32C U55C U57C U65C | < 1e-05 |
| A14U C50A A53G C70A | 7.44e-05 ± 1.4e-05 |
| A12U G44C C61G | < 1e-05 |
| A14C C50A U54C | < 1e-05 |
| A14G A39U C67A | 0.0121 ± 0.003 |

| Variant | self-cleavage kobs at 2500 uM GlcN6P [s⁻¹] |
| --- | --- |
| A14U G43C A53U G59C | < 1e-05 |
| A14G C16U A36G | 4.05e-05 ± 1.5e-05 |
| G13U U30G G32C | 4.58e-05 ± 1.5e-05 |
| A15C A42G C70G | 7.41e-05 ± 1.9e-05 |
| A14C U45G C68U | 3.4e-05 ± 1.6e-05 |
| A14C G29U A53G U65G | 6.14e-05 ± 1.8e-05 |
| A14U A15U G40U | 0.000122 ± 3.7e-05 |
| G13A U30G U56A | 7.43e-05 ± 2.5e-05 |
| G13U A36C A42G C58U | < 1e-05 |
| G13U G35U U54A | < 1e-05 |
| A15G A64C C71U | 7.46e-05 ± 1.9e-05 |
| A15G G32A C58G | 8.81e-05 ± 2.9e-05 |
| G13U A39C U56G | 3.76e-05 ± 1.4e-05 |
| G13A U30A G32U | 7.99e-05 ± 1.7e-05 |
| A14G C58U G66U C67G | 7.46e-05 ± 3.2e-05 |
| G13A U31G A36G | < 1e-05 |
| A14C U45G C71A | 4.43e-05 ± 1.3e-05 |
| A14G A52U A53G | 0.000141 ± 3.3e-05 |
| A14U G29C G44U | < 1e-05 |
| A15G A64C G66A | 0.000144 ± 4.8e-05 |
| G13C A36G A64U C70G | < 1e-05 |
| A14G G41C A42U | 3.8e-05 ± 1.4e-05 |
| A14U A15U C16U | 5.74e-05 ± 2.3e-05 |
| A12U U56A C68A | 6.47e-05 ± 1.9e-05 |
| G13C G29C U55A | 8.97e-05 ± 2.5e-05 |

| Variant | self-cleavage kobs at 2500 uM GlcN6P [s⁻¹] |
| --- | --- |
| G13C A15G C58A | 5.1e-05 ± 1.5e-05 |
| A14G C16A U45C G66C | 0.000167 ± 3.4e-05 |
| G13A A33C A48C | < 1e-05 |
| A14C G32U U47C C67G | < 1e-05 |
| A14C U55A C68A | 6.41e-05 ± 2.5e-05 |
| A15C U47C U55C | 0.000237 ± 7.7e-05 |
| A14G C16U A53U | 0.0165 ± 0.0044 |
| A14U U30G U31C A53U | 0.00047 ± 0.00013 |
| A15C U31C G41C U57G | < 1e-05 |
| G13U A42U C50U | < 1e-05 |
| G13C A33C G63A A64C | < 1e-05 |
| A14U U45A C71G | 0.000196 ± 5.4e-05 |
| A14U U57A A64G | 3.21e-05 ± 1.3e-05 |
| A14C G21U G26U A36C | < 1e-05 |
| A14C G29C U30C A52U U65A | < 1e-05 |
| A14C C16A A42G | 5.08e-05 ± 2e-05 |
| A14G U55G U69A | 0.000475 ± 8.8e-05 |
| A15C U69G | 7.29e-05 ± 2.2e-05 |
| A14C A48G C70U | 5.88e-05 ± 2.6e-05 |
| G13U C67U C70U | 6.19e-05 ± 2.3e-05 |
| A14U G43C U45G | 0.000172 ± 4.1e-05 |
| A14U G43U C68G | 0.0033 ± 0.00062 |
| G13C G35U A52C | < 1e-05 |
| A14U G32C C67A | 3.21e-05 ± 1.6e-05 |
| G13A A52C G60A | < 1e-05 |

Variants of: B1
Assay: self-cleavage kobs at 10000 uM GlcN6P; higher = faster cleavage; RNA array
Conditions: with glucosamine-6-phosphate
Summary of the method: as §1

| Variant | self-cleavage kobs at 10000 uM GlcN6P [s⁻¹] |
| --- | --- |
| G13U A39G C71A | 0.000285 ± 6.4e-05 |
| A14G U30C A39C U54A | 0.000156 ± 2.5e-05 |
| G13U G66A | 0.000729 ± 0.00013 |
| A15G G29A A36G | < 1e-05 |
| A14C U45C | 0.000368 ± 6.5e-05 |
| A14C A39U G41U U65G | < 1e-05 |
| A15C G32C U55C U57C U65C | < 1e-05 |
| A15C A42G C70G | 4.12e-05 ± 1.7e-05 |
| A14U A15U G40U | 0.000149 ± 2.6e-05 |
| G13C A15G C58A | 0.000154 ± 2.6e-05 |
| G13U A42U C50U | < 1e-05 |
| A14G U55G U69A | 0.000104 ± 2.4e-05 |
| A14U G43C U45G | 0.000252 ± 6.9e-05 |
| A14U G32C C67A | 8.69e-05 ± 2.8e-05 |
